This is an account of results in US20180155451A1 (published 2018).

B1: GpH7-A5/GpH7-B3 variant I332_01G/GpL16-k0 (antibody, human IgG1, kappa)
heavy 1: not shown
heavy 2: not shown
light: DIVMTQSPLSLPVTPGEPASISCQASESLVHSNRNTYLHWYLQKPGQSPQLLIYKVSNRFSGVPDRFSGSGSGTDFTLKISRVEAEDVGVYYCSQNTHVPPTFGQGTKVEIERTVAAPSVFIFPPSDEQLKSGTASVVCLLNNFYPREAKVQWKVDNALQSGNSQESVTEQDSKDSTYSLSSTLTLSKADYEKHKVYACEVTHQGLSSPVTKSFNRGEC
notes: also called He Ab I332_01G
B2: GpH7-A5/GpH7-B3 variant I332_06M/GpL16-k0 (antibody, human IgG1, kappa)
heavy 1: not shown
heavy 2: not shown
light: DIVMTQSPLSLPVTPGEPASISCQASESLVHSNRNTYLHWYLQKPGQSPQLLIYKVSNRFSGVPDRFSGSGSGTDFTLKISRVEAEDVGVYYCSQNTHVPPTFGQGTKVEIERTVAAPSVFIFPPSDEQLKSGTASVVCLLNNFYPREAKVQWKVDNALQSGNSQESVTEQDSKDSTYSLSSTLTLSKADYEKHKVYACEVTHQGLSSPVTKSFNRGEC
notes: also called He Ab I332_06M
B3: GpH7-A5/GpH7-B3 variant I336_18N/GpL16-k0 (antibody, human IgG1, kappa)
heavy 1: not shown
heavy 2: not shown
light: DIVMTQSPLSLPVTPGEPASISCQASESLVHSNRNTYLHWYLQKPGQSPQLLIYKVSNRFSGVPDRFSGSGSGTDFTLKISRVEAEDVGVYYCSQNTHVPPTFGQGTKVEIERTVAAPSVFIFPPSDEQLKSGTASVVCLLNNFYPREAKVQWKVDNALQSGNSQESVTEQDSKDSTYSLSSTLTLSKADYEKHKVYACEVTHQGLSSPVTKSFNRGEC
notes: also called He Ab I336_18N
B4: GpH7-A5/GpH7-B3 variant I336_03V/GpL16-k0 (antibody, human IgG1, kappa)
heavy 1: not shown
heavy 2: not shown
light: DIVMTQSPLSLPVTPGEPASISCQASESLVHSNRNTYLHWYLQKPGQSPQLLIYKVSNRFSGVPDRFSGSGSGTDFTLKISRVEAEDVGVYYCSQNTHVPPTFGQGTKVEIERTVAAPSVFIFPPSDEQLKSGTASVVCLLNNFYPREAKVQWKVDNALQSGNSQESVTEQDSKDSTYSLSSTLTLSKADYEKHKVYACEVTHQGLSSPVTKSFNRGEC
notes: also called He Ab I336_03V
B5: GpH7-A5/GpH7-B3 variant K326_07I/GpL16-k0 (antibody, human IgG1, kappa)
heavy 1: not shown
heavy 2: not shown
light: DIVMTQSPLSLPVTPGEPASISCQASESLVHSNRNTYLHWYLQKPGQSPQLLIYKVSNRFSGVPDRFSGSGSGTDFTLKISRVEAEDVGVYYCSQNTHVPPTFGQGTKVEIERTVAAPSVFIFPPSDEQLKSGTASVVCLLNNFYPREAKVQWKVDNALQSGNSQESVTEQDSKDSTYSLSSTLTLSKADYEKHKVYACEVTHQGLSSPVTKSFNRGEC
notes: also called He Ab K326_07I
B6: GpH7-A5/GpH7-B3 variant I336_06M/GpL16-k0 (antibody, human IgG1, kappa)
heavy 1: not shown
heavy 2: not shown
light: DIVMTQSPLSLPVTPGEPASISCQASESLVHSNRNTYLHWYLQKPGQSPQLLIYKVSNRFSGVPDRFSGSGSGTDFTLKISRVEAEDVGVYYCSQNTHVPPTFGQGTKVEIERTVAAPSVFIFPPSDEQLKSGTASVVCLLNNFYPREAKVQWKVDNALQSGNSQESVTEQDSKDSTYSLSSTLTLSKADYEKHKVYACEVTHQGLSSPVTKSFNRGEC
notes: also called He Ab I336_06M
B7: GpH7-A5/GpH7-B3 variant I336_02A/GpL16-k0 (antibody, human IgG1, kappa)
heavy 1: not shown
heavy 2: not shown
light: DIVMTQSPLSLPVTPGEPASISCQASESLVHSNRNTYLHWYLQKPGQSPQLLIYKVSNRFSGVPDRFSGSGSGTDFTLKISRVEAEDVGVYYCSQNTHVPPTFGQGTKVEIERTVAAPSVFIFPPSDEQLKSGTASVVCLLNNFYPREAKVQWKVDNALQSGNSQESVTEQDSKDSTYSLSSTLTLSKADYEKHKVYACEVTHQGLSSPVTKSFNRGEC
notes: also called He Ab I336_02A
B8: GpH7-A5/GpH7-B3 variant I336_08L/GpL16-k0 (antibody, human IgG1, kappa)
heavy 1: not shown
heavy 2: not shown
light: DIVMTQSPLSLPVTPGEPASISCQASESLVHSNRNTYLHWYLQKPGQSPQLLIYKVSNRFSGVPDRFSGSGSGTDFTLKISRVEAEDVGVYYCSQNTHVPPTFGQGTKVEIERTVAAPSVFIFPPSDEQLKSGTASVVCLLNNFYPREAKVQWKVDNALQSGNSQESVTEQDSKDSTYSLSSTLTLSKADYEKHKVYACEVTHQGLSSPVTKSFNRGEC
notes: also called He Ab I336_08L

T1 sequence (P08637 17-208): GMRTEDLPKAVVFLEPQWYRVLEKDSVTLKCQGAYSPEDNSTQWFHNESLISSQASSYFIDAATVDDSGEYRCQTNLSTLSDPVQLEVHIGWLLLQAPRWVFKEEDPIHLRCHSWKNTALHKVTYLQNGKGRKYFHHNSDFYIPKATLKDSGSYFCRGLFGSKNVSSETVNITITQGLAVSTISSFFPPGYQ

The assay has as its target T1, FcγRIIIa extracellular domain with C-terminal His tag (human, UniProt P08637 17-208).
T1 construct: extracellular domain; also called FcgRIIIa; 3a; not shown: His tag at the C terminus
Description: SPR relative binding; GpH7-A5/GpH7-B3/GpL16-k0 = 100. The procedure:
Analysis of interaction between objective antibody and the FcγR was carried out using Biacore T100 (GE Healthcare). HBS-EP+ (GE Healthcare) was used as the running buffer, and the measurement temperature was set to 25° C. Chips produced by immobilizing the antigen peptide by the amine coupling method to a Series S Sencor Chip CM5 (GE Healthcare), or alternatively, chips produced by allowing preliminarily biotinylated antigen peptides to interact with and immobilize onto a Series S Sensor Chip SA (certified) (GE Healthcare) were used. Antibodies of interest were captured onto an antigen peptide-immobilized chip, and allowed to interact to each FcγR diluted with running buffer. To regenerate and repeatedly use the chip, the antibodies captured on the chip were washed off by reacting 10 mM glycine-HCl, pH 1.5.
The FcγR-binding activity of each antibody was assessed primarily using as an indicator the FcγR-binding activity and dissociation constant for FcγR.
Turning to B1, the He/Con_3a is 111 % of control.

In the case of B2, the He/Con_3a is 101 % of control.

For B3, the He/Con_3a was 104 % of control.

For B4, the He/Con_3a was 112 % of control.

For the molecule B5, the He/Con_3a is 139 % of control.

In the case of B6, the He/Con_3a was 109 % of control.

For B7, the He/Con_3a is 111 % of control.

Take B8: the He/Con_3a was 106 % of control.
